This is an account of results in paper PMC3463621.

The target of this assay is recombinant collagen α1(XI) amino terminal domain (NTD) (UniProt P20909). Description: SPR. (In general: In SPR one partner is held on a chip, and binding of the other changes the refractive index at the surface.)
UniProt P20909, sequence (P20909 35-1561): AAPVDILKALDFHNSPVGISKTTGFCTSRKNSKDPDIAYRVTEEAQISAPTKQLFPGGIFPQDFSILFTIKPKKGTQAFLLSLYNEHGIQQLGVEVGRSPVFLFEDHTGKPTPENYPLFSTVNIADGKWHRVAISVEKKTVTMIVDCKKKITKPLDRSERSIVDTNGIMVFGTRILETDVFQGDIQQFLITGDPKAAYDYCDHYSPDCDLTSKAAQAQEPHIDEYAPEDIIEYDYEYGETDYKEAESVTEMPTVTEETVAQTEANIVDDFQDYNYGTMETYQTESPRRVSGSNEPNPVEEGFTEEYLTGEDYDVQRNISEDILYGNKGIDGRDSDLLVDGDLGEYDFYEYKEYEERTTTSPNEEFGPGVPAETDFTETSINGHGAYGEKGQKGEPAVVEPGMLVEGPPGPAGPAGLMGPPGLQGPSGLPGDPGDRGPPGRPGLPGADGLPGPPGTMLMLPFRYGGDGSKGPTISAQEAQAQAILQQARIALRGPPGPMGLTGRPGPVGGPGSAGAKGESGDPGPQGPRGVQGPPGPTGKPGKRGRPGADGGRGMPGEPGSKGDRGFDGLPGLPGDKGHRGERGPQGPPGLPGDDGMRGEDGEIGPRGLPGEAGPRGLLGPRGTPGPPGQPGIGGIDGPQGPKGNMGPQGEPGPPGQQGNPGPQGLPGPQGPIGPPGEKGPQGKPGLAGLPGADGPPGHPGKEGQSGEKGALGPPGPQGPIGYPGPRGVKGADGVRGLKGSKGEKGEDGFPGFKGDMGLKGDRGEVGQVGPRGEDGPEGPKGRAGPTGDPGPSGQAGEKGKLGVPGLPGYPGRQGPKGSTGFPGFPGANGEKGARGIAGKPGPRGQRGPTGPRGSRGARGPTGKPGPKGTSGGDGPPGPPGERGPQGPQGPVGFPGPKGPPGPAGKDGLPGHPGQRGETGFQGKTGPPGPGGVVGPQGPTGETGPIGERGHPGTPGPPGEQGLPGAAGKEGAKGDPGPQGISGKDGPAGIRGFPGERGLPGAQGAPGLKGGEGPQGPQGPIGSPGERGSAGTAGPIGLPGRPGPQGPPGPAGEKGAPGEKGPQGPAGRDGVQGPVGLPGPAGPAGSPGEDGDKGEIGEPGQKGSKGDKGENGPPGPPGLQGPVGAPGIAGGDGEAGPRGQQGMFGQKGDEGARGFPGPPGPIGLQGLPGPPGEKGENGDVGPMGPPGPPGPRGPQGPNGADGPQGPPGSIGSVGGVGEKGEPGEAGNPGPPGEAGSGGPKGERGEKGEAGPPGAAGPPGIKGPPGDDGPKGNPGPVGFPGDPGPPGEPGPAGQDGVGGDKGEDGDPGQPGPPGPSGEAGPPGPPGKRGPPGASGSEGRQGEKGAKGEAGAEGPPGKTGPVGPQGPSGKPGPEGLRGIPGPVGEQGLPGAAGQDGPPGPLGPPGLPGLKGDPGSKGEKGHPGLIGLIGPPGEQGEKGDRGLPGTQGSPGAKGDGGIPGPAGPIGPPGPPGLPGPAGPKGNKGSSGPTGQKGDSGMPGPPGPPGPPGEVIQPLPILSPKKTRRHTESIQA

Turning to “Thrombospondin 1 (R&D Systems) (from UniProt P07996 19-1170) (natural protein)”, the equilibrium dissociation constant (Kd) amounted to 0.1 µM.

Usually Kd stands for the concentration at which binding is half-saturated.
